In data set [1] the test system is MS2 coat protein. Description: apparent KD of MS2 coat protein; designed switch direction (-1 OFF switch, 1 ON switch): 1; higher = weaker reporter binding. The note with it: Eterna round: R98. Here is the method: (§1)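 RNA-MaP: designed FMN/MS2 RNA switches (84 nt design region) are transcribed on-chip within common flanks and titrated with SNAP-549-labelled MS2 coat protein (about 1-3000 nM) in 100 mM Tris pH 7.5, 80 mM KCl, 4 mM MgCl2, without or with 200 uM FMN. Median apparent KD per design; activation ratio = KD,OFF / KD,ON.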

Data set [2] deals with MS2 coat protein. As to the kind of experiment: apparent KD of MS2 coat protein; higher = weaker reporter binding. To be noted: Eterna round: R101. Here is the method:
as §1

In the case of “AAAACAUGAGGAUCACCCAUGUAAAGUUCGGAAAGUUAGAGUGAGGAUAUACAAAUUUUUAUUUAGUAGAAGGCACUGGGUACA [JR_SSNG3_Sub032Nu]”, the “apparent KD of MS2 coat protein” value in the data set with MS2 coat protein [1] (input ligand: FMN 200 uM) amounted to 24.8 nM; in the data set on MS2 coat protein [1] (input ligand: none), 26.7 nM.

“AAAACAUGAGGAUCACCCAUGUAUAGAUCGGUUGUUAGGAGUGAGGAUAUGCUUAAAAUAAGGUAGCAGAAGGCACUGGGUACA [JR_SSNG3_Sub071]”: the results for the “apparent KD of MS2 coat protein” value in the data set on MS2 coat protein [1] (input ligand: FMN 200 uM) and in the data set with MS2 coat protein [1] (input ligand: none) were 23.6 nM and 15.3 nM, respectively.

With “AAACUGCCACAUGAGGAUCACCCAUGUAAAUAAAGUAUUUGAAGAAGGGCGAUAGCAAAGCUAUCGCAGGAUAUUCUCAGGCAG [#GuReductionToAU - jl-sng2-2.35] (puzzle (switch architecture): Inverted Same State NG 3)”, the “apparent KD of MS2 coat protein” value amounted to 8.34 nM in the data set with MS2 coat protein [2] (input ligand: FMN 200 uM) and 43.7 nM with MS2 coat protein [2] (input ligand: none).

On to “AAAUAAAAUAUAGGAUAUGGAAACAUGAGGAUCACCCAUGUAAAAUAAAAUAAAUAAUAAUAUAACCAGAAGGAUAAAAUAUAA [LRO002_SS NG 2]”, for which the “apparent KD of MS2 coat protein” value in the data set with MS2 coat protein [1] (input ligand: FMN 200 uM) was 36.1 nM; in the data set with MS2 coat protein [1] (input ligand: none) it was 33.9 nM.

In the case of “AAAUAAACCUUAGGAUAUGACUCCGAAACGGAGUCAGAAGGGAGGAUCACCCUCUUCAGCUCAGCGUCGAAAGACGCUGAGCAA [#SharedSequence ExNG1 - 21] (puzzle (switch architecture): Exclusion NG 1)”, the figures for the “apparent KD of MS2 coat protein” value in the data set on MS2 coat protein [2] (input ligand: FMN 200 uM) and with MS2 coat protein [2] (input ligand: none) were 63.3 nM and 72.9 nM, respectively.

Regarding “AAAUAAAUUGAAGGAUAUCAGGGUGCACCUCAGUAAAACUGAGGUGCACCCUGAGAAGGUCGAGGAUCACCCGACCUAAAUAAA [#SharedSequence SLExNG1: 4-2] (puzzle (switch architecture): Small Loop Exclusion NG 1)”, the entries for the “apparent KD of MS2 coat protein” value in the data set with MS2 coat protein [2] (input ligand: FMN 200 uM) and in the data set with MS2 coat protein [2] (input ligand: none) were 8.37 nM and 7.63 nM, respectively.

“AAAUGUACGAAGAAGGCUCUGCCACUGGCCGAGAGAGGAUAUUCACACAUGAGGAUCACCCAUGUCGAACAAAGUACACAGAGC [EternaBot1858] (puzzle (switch architecture): Inverted Same State NG 1)”: the “apparent KD of MS2 coat protein” value with MS2 coat protein [2] (input ligand: FMN 200 uM) was 7.05 nM.

Regarding “AAGAUACUUACAGGAUAUAGGGCAGAGGGUGCCCUAGAAGGGUGAACAUGAGGAUCACCCAUGUAUGUAUCAGAUUAGAAGGCA [Inleesti]”, the results for the “apparent KD of MS2 coat protein” value with MS2 coat protein [1] (input ligand: FMN 200 uM) and with MS2 coat protein [1] (input ligand: none) were 63.4 nM and 43.3 nM, respectively.

For “AGAAUGACAUGAGGAUCACCCAUGUUGGGAAAACCCGUAACUCAGGAUAUGUACGCGAAAGACCGACAGAAGGGAGAUCUACAC [Amaes]”, the figures for the “apparent KD of MS2 coat protein” value with MS2 coat protein [1] (input ligand: FMN 200 uM) and with MS2 coat protein [1] (input ligand: none) were 43.3 nM and 37.4 nM, respectively.

For the sequence “AUAGGUUAAGGAGGAUAUAGAGGGAGAAGUAAACAUGAGGAUCACCCAUGUAUUUAAUUAGUUUACUAGAAGGCUUGUGAUUGU”, the “apparent KD of MS2 coat protein” value in the data set with MS2 coat protein [1] (input ligand: FMN 200 uM) worked out at 50.9 nM; in the data set on MS2 coat protein [1] (input ligand: none) it was 45.9 nM.

On to “CAGCAAUUCUUAGGAUAUGCUCAGGAAUACUGAGCAGAAGGAAGAUAUACCUGAGGAUCACCCAGGUUAAACUGAAGCUGAAUA [Same State NG1 - A3C, U17G Submission 7B]”, for which the “apparent KD of MS2 coat protein” value is 17.4 nM with MS2 coat protein [1] (input ligand: FMN 200 uM) and 15.7 nM in the data set on MS2 coat protein [1] (input ligand: none).

Regarding “CAUGUCCUCACAGGAUAUGCACCACUUUGUGGUGCAGAAGGGUGGAAACAUGAGGAUCACCCAUGUGGACAUGAUAUAUUUAAU [Denovo 7]”, the “apparent KD of MS2 coat protein” value with MS2 coat protein [1] (input ligand: FMN 200 uM) was determined as 22.4 nM; in the data set with MS2 coat protein [1] (input ligand: none) it was 164 nM.

“CGAGACACUUGAGGAUAUGCUCAGGAUAACUGAGCAGAAGGCAGGAAAACCUGAGGAUCACCCAGGUAACUGGAAAGUCUCGAA [Same State NG1 - A3C, U17G Submission 5F-G46A]”: the “apparent KD of MS2 coat protein” value in the data set with MS2 coat protein [1] (input ligand: FMN 200 uM) was found to be 16.9 nM; in the data set on MS2 coat protein [1] (input ligand: none), 17.9 nM.

Turning to “CUGCAAUUCUUAGGAUAUGCUCAGGAUAACUGAGCAGAAGGAAGAUAUACCUGAGGAUCACCCAGGUUAAACUGGAGCAGAAUA [Same State NG1 - A3C, U17G Submission 8B]”, the results for the “apparent KD of MS2 coat protein” value with MS2 coat protein [1] (input ligand: FMN 200 uM) and in the data set with MS2 coat protein [1] (input ligand: none) were 33.6 nM and 179 nM, respectively.

In the case of “CUGCGAUUCUUAGGAUAUCGAGUGGAAUACACUCGAGAAGGAAGAAUAACCUGAGGAUCACCCAGGUAAUACUGAAGCAGAAUA [Same State NG1 - A3C, U17G Submission 9C]”, the “apparent KD of MS2 coat protein” value in the data set on MS2 coat protein [1] (input ligand: FMN 200 uM) is 23.4 nM; in the data set on MS2 coat protein [1] (input ligand: none) it was 32.7 nM.

With “GCACUCAAGUUAGGAUAUGGAUCGGAAACCGAUCCAGAAGGAACACGAAAACAUGAGCAUCAGCCGUGUUCCAGAAACGAGUGC [SameSame 14 - Jieux - Same State NG 1]”, the results for the “apparent KD of MS2 coat protein” value in the data set on MS2 coat protein [1] (input ligand: FMN 200 uM) and in the data set with MS2 coat protein [1] (input ligand: none) were 347 nM and 917 nM, respectively.

On to “GGACGUCACAUUAACAUGAGGAUCACCCAUGUCAAAAGACAUGAGGAUAUGGAUCCUAAUUGGAUCCAGAAGGCAUGGACGUCC [EliMod 1 - Jieux - Same State NG 3]”, for which the figures for the “apparent KD of MS2 coat protein” value in the data set on MS2 coat protein [1] (input ligand: FMN 200 uM) and in the data set on MS2 coat protein [1] (input ligand: none) were 38.9 nM and 680 nM, respectively.

Consider “GGAUCCAUCACAGGAUAUGCUGGACUUUGUCCAGCAGAAGGGUGACAUGAGGAUCACCCAUGUACAAAGGAUCCUAUAUUUAAU [Denovo 28]”, for which the “apparent KD of MS2 coat protein” value in the data set on MS2 coat protein [1] (input ligand: FMN 200 uM) worked out at 45.2 nM; with MS2 coat protein [1] (input ligand: none), 377 nM.

As to “GGUCCAUCAUGAGGAUAUGGCACCUUAUUGGUGCCAGAAGGCAUGUCUUUUGACAUGAGGAUCACCCAUGUAAUAAAUUGGACC [Pyrimidine booster 6]”, the figures for the “apparent KD of MS2 coat protein” value in the data set on MS2 coat protein [1] (input ligand: FMN 200 uM) and in the data set on MS2 coat protein [1] (input ligand: none) were 130 nM and 1920 nM, respectively.

As to “GUAGCAUACCGAGGAUAUUCAUAUAUGAAAAUAACAUGAGGAUCACCCAUGUGGCGAAAGCCUUGGGAGAAGGCGGAAUGCUAC [Xeinanis 75 22]”, the figures for the “apparent KD of MS2 coat protein” value in the data set with MS2 coat protein [1] (input ligand: FMN 200 uM) and with MS2 coat protein [1] (input ligand: none) were 34.4 nM and 490 nM, respectively.

As for “GUGCACACUCGAGGAUAUCGGAGAUUUCUCCUUCGAGAAGGCGAUUCGUGCCGUGUUAUUCUGGACAUGAGGAUCACCCAUGUG [LRO026_SS NG 1 mod JR_SSNG1_Sub034]”, the “apparent KD of MS2 coat protein” value with MS2 coat protein [1] (input ligand: FMN 200 uM) amounted to 35.4 nM; with MS2 coat protein [1] (input ligand: none), 110 nM.

On to “UAUAUAUGGUGAGGAUAUGCAAAGGAUCACCUUGUAGAAGGCAUCAGGGUAGAAGGUGCAAGGAUCACCUGUAAGGAUAUAUCC [pwkr2 ssNG1 DX.25]”, for which the “apparent KD of MS2 coat protein” value was 447 nM in the data set with MS2 coat protein [1] (input ligand: FMN 200 uM) and 1560 nM in the data set with MS2 coat protein [1] (input ligand: none).

In the case of “UCACUCACGUCAGGAUAUGGAUCGGAAAACGAUCCAGAAGGGACCUGCAAACGUGAGGAUCACCCACGUUCCAAUAACGAGUGA [SameSame 11 - Jieux - Same State NG 1]”, the “apparent KD of MS2 coat protein” value amounted to 29.7 nM with MS2 coat protein [1] (input ligand: FMN 200 uM) and 35.4 nM in the data set with MS2 coat protein [1] (input ligand: none).

Consider “UGAUCGCUUGGAGGAUAUCCAACUAUCAUAGUUGGAGAAGGCCAAGCUACAGAGCUAAGCUUGGAAGUCACUUCCGAUCAACAC [pwkr ssNG1 F9.4.3]”, for which the “apparent KD of MS2 coat protein” value in the data set with MS2 coat protein [1] (input ligand: FMN 200 uM) was determined as 49.7 nM; in the data set on MS2 coat protein [1] (input ligand: none) it was 59.1 nM.

For the sequence “UGGAUGGUAUGAGGAUAUGCGCGCGAAACGCGCGCAGAAGGCAUGUCAAUAGACAUGAGGAUCACCCAUGUAUUAUCCAUCCAA [MatMod 9 - Jieux - Same State NG 1]”, the “apparent KD of MS2 coat protein” value worked out at 39.4 nM in the data set on MS2 coat protein [1] (input ligand: FMN 200 uM) and 300 nM in the data set on MS2 coat protein [1] (input ligand: none).

As to “UUUACAUGAGGAUCACCCAUGUCUGUCACGCGUGUGUGCAAUCAGGAUAUGAUCUCAAGAAUGAAUUAGAAGGGAUAACGUGAG [Attempt 5]”, the entries for the “apparent KD of MS2 coat protein” value with MS2 coat protein [1] (input ligand: FMN 200 uM) and in the data set on MS2 coat protein [1] (input ligand: none) were 354 nM and 366 nM, respectively.

Source of the values: the supplement of paper PMC9170038.
